Results as given in patent US9631002B2, “Methods and compositions for producing active vitamin K-dependent proteins” (The University of North Carolina at Chapel Hill, priority 2010, dated 2017).
Residue numbers refer to the chain shown, from its start. Names may count otherwise. Where two headings read alike, the source gives them in different places.

Experiments:
[1] = tested on: FIXgla-PC carboxylation in HEK 293 cells; assay type: cell-based, human
[2] = tested on: FIXgla-PC carboxylation in AV12 cells; details: vitamin K present, AV12
[3] = tested on: carboxylation of FIXgla-PC reporter protein in HEK293 cells (reduction of KO to vitamin K); assay: Cell-based VKOR activity assay: recombinant VKOR/VKORH expressed in FIXgla-PC/HEK293 cells with KO and warfarin, carboxylated reporter by ELISA; set-up: species or system human; details: for support of carboxylation of the reporter protein with KO as substrate / ability of human VKOR with replaced residues 122-139 to use KO to carboxylate the reporter: 5 μM KO; for support of carboxylation of the reporter protein with KO as substrate: 4 μM warfarin, 48 h (FIG. 15B); for ability of human VKOR with replaced residues 122-139 to use KO to carboxylate the reporter: 2 μM warfarin, 48 h, HEK293 (FIG. 11C); for Relative activity: Human Y139F: VKOR of the organism compared to human Y139F VKOR, cell-based carboxylation; for carboxylation activity of modified human VKOR: FIGS. 23, 33; for activity relative to MT-VKORH: KO as substrate, FIXgla-PC/HEK293 (FIG. 21B)
[4] = tested on: carboxylation of FIXgla-PC reporter protein in AV12 cells (reduction of vitamin K to KH2); assay: Cell-based VKOR activity assay in FIXgla-PC/AV12 or FIXgla-PC/VKOR-Y139F/AV12 cells, carboxylated reporter by ELISA; set-up: species or system Syrian golden hamster; details: for activity in reducing vitamin K to KH2 to support carboxylation: transient expression in FIXgla-PC/VKOR-Y139F/AV12, KO and warfarin (FIG. 19A); for ability of human VKOR with replaced residues 122-139 to use vitamin K to carboxylate the reporter: 11 μM K, 2 μM warfarin, 48 h, FIXgla-PC AV-12 (FIG. 11B); for ability to reduce vitamin K to KH2 compared with MT-VKORH: FIXgla-PC/VKOR-Y139F/AV12 (FIG. 21C)

For CC(=CCC12OC1(C)C(=O)c1ccccc1C2=O)CCCC(C)CCCC(C)CCCC(C)C (centres unmarked) [KO, Vitamin K1 2,3-epoxide], the “increase in secretion of carboxylated reporter protein compared to no additions” value ([1]; 11 μM vitamin K or 5 μM KO, HEK293) was “approximately 25 fold”.

In the case of O=c1oc2ccccc2c(O)c1Cc1c(O)c2ccccc2oc1=O [dicoumarol], the reporter protein carboxylated ([1]; 20 μM dicoumarol, HEK293, vitamin K) is reported as 60%, the “inhibition of reporter protein carboxylation by dicoumarol” value (“inhibition” below) ([1]; KO as vitamin K source, HEK293) is reported as “significantly inhibited” and the “inhibition” value ([1]; cells fed vitamin K, HEK293) is reported as “only minimal inhibition”. The “decrease of carboxylation of the reporter protein” value ([1]; vitamin K as substrate, dicoumarol) was about 20% and the “inhibition” value [2] was “completely inhibited”.

B1: RO-VKORH: Roseiflexus sp. RS-1 VKORH, SEQ ID NO:20 (protein)
chain: MRRFLLTLIVSCMLTLSLSVASAAATVRAVLFYSPRCGHCHMVISEHLPPLQQRYGDQLQILMIDVDQAQGAALYREAIAVYAIPEARRGVPTMIISDTVLVGSVEIPQRLPGLIETLLARGGSDWPPIPGLADLLATVPTSAPAPPTLPPATAETPPFLRDLPANALAVVVLAGMLLTVMWAGITWSRPAQPPTRWRDRSIPLLAIGGMAVAAYLTFIETTGAPALCGPVGDCNAVQQSEFARLFGTIPVGAAGVAGYGAILIVWIVAHLLPGTSGERAALLLPALALIGTLFSIYLTFLEPFVIGATCLWCLTSAVIMTGLLWLSMPYRQRSTSRGYARR
modifications: Roseiflexus sp. RS-1
For B1, the “support of carboxylation of the reporter protein with KO as substrate” value (from here on “support of carboxylation … as substrate”) [3] was “only MT-VKORH supported carboxylation” and the “activity in reducing vitamin K to KH2 to support carboxylation” value (“activity in reducing vitamin K to KH2” below) [4] was “significant activity”.

B2: hVKOR Arabidopsis: human VKOR with residues 122-139 replaced by Arabidopsis VKOR 185-202, SEQ ID NO:30 (protein)
chain: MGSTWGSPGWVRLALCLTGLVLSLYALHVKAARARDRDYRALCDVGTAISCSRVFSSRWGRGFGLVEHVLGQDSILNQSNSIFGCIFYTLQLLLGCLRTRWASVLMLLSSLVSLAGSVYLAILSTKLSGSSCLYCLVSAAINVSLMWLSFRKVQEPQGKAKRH
modifications: Human VKOR with amino acids 122-139 substituted with amino acids 185-202 of A. thaliana VKOR (RefSeq accession no. NP_567988)
For B2, the “ability of human VKOR with replaced residues 122-139 to use KO to carboxylate the reporter” value [3] was “only the human VKOR substituted with the M. tuberculosis domain functions as a VKOR” and the “ability of human VKOR with replaced residues 122-139 to use vitamin K to carboxylate the reporter” value [4] was “can utilize vitamin K to produce carboxylated reporter protein”.

B3: AR-VKORH: Arabidopsis VKORH, NP_567988.1, SEQ ID NO:19 (protein, listed as Arabidopsis thaliana)
chain: MMARFVSVSSCQFHFGFREVSPPSVTSYPRRFEVSDRRFPAIPIKCSSSEPENGEDSAPSLSSSSSSSTSEVSTSNSSTYNWYTGIGGIGMLDTAYLTYLKVTGSDAFCPIGGGTCGDVLNSDYAVVFGVPLPVIGFVMYGVVTALSAELGEGNLPFGISKSNGRFALFGITTAMASASAYFLYILSTKLSGSSCLYCLVSAFLSFSLFFLSVKDVKLQEIQQVVGLQICLAIIVVASLTASYSTAQPIPSRSGDIELPYFRTEISSSSSPYAIALAKHLNSIGAKMYGAFWCSHCLEQKEMFGREAAKELNYVECFPDGYKKGTKILKACADAAIEGFPTWIINDKVLS
With B3 the “support of carboxylation … as substrate” value [3] was “only MT-VKORH supported carboxylation” and the “activity in reducing vitamin K to KH2” value [4] was “no significant activity”.

B4: Amphioxus: Amphioxus VKOR, SEQ ID NO:11, Y144F (protein, listed as Branchiostoma floridae)
chain: MAAGRSFRLPIWEILSRCMLCTAGLVLSGYAFYVETSKEADHSYTAMCDVSESVSCSKVFTSRFGRGFGLVEPILGADSPLNLPNSIFGLAFYIMQLCLGVVPGMSVSIVLLATSVLSCLGCVYLAYILYFILQDACIVCISTFVVNTFMLIVNIKRVLLQRKAILKKQQ
For B4, the “Relative activity: Human Y139F” value [3] was “Yes, greater”.

B5: Trichoplax: Trichoplax VKOR XM_002107720.1, SEQ ID NO:15 (protein, listed as Trichoplax adhaerens)
chain: B4 chain with F144Y, F149L, I152V, I165L
For B5, the “Relative activity: Human Y139F” value [3] was “No”.

B6: Human VKOR with amino acids 44-50 substituted with amino acids DYKDDDDK (Flag tag): human VKOR cysteine loop 44-50 replaced with FLAG tag, SEQ ID NO:34 (protein)
chain: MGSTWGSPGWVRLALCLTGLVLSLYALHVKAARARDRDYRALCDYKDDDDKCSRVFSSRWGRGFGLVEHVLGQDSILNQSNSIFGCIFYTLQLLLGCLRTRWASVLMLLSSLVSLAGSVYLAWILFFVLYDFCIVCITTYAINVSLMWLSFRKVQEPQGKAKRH
modifications: Human VKOR with amino acids 44-50 substituted with amino acids DYKDDDDK (Flag tag)
For B6, the “carboxylation activity of modified human VKOR” value [3] was “increased activity”.

B7: V45N: human VKOR comprising a V45N substitution introducing an additional glycosylation site, SEQ ID NO:25 (protein)
chain: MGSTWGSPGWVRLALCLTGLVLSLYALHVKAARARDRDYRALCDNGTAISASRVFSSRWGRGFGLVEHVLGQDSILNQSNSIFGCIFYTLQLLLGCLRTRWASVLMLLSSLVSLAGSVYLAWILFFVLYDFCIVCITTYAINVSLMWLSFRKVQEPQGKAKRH
modifications: Human VKOR with V45N mutation
B7 was tested, and the “carboxylation activity of modified human VKOR” value [3] was “increased carboxylation activity”.

B8: Xenopus tropicalis: Xenopus VKOR NP_001006928, SEQ ID NO:8, Y138F (protein)
chain: MAVPGWERAVRLLLCGVGIALSVYAYHVETSRERDANYTALCDINPSISCSKVFTSRWGRGFGLVEQILGRQSFLNQPNSVFGILFYGLQVLLGFSGSVGAAAALLGTSLVSIAGSLYLAYILFYVLEDFCVICVTTFALNFCLLLLNLKRLASLRAPPKKQKNKRKKN
modifications: Xenopus (Silurana) tropicalis
For B8, the “Relative activity: Human Y139F” value [3] was “Yes, greater”.

B9: Takifugu: Takifugu VKOR NP_001027838, SEQ ID NO:7, Y138F (protein)
chain: MAIPTWERKVRIFLCVFGLLLSVYALHVELSRERNPDYRAMCDLGESVSCSKVFSSRWGRGFGLVQYFVDKDSPLNQPNSVLGIIFYTLQMCLGLSLSRKAALFLVFSSWVSVAGSLYLASILAFVLGDFCMVCVSTFLVNFVLLFTNLKRRRAIEGLKEKSG
modifications: Takifugu rubripes
For B9, the “Relative activity: Human Y139F” value [3] was “Yes, greater”.

B10: CO-VKORH: Corynebacterium jeikeium K411 VKORH, SEQ ID NO:23 (protein, listed as Corynebacterium jeikeium)
chain: MWVWWGREGVSNKESEHMNGLGATKRFGYTFLVLSTIGLIFSALIMHDKVQMALDPNFEPACTFNEVISCTDVMASDQAATFGFANPFIGMIGFPVMMTLAVMLIVGAKLPRWIWYCALAGLAFGVAFVHWLAYSAIYSIGALCPYCMAVWAATLPMFVMTLVHIQREKRREAGEDVAHSALGMPLVVIIAWFLAFTALILDQFVF
In the case of B10, the “activity relative to MT-VKORH” value [3] is reported as 70% and the “ability to reduce vitamin K to KH2 compared with MT-VKORH” value [4] is reported as “higher than the KO to vitamin K reduction”.

B11: hVKOR DsbB: human VKOR with residues 122-139 replaced by bacterial DsbB 33-50, SEQ ID NO:32 (protein)
chain: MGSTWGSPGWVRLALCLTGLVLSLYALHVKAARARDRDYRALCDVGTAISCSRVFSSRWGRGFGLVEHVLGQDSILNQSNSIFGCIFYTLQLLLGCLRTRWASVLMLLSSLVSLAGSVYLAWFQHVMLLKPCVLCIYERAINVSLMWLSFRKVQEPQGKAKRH
modifications: Human VKOR with amino acids 122-139 substituted with amino acids 33-50 of DsbB enzyme (RefSeq accession no. ZP_03067529)
B11 was tested, and the “ability of human VKOR with replaced residues 122-139 to use KO to carboxylate the reporter” value [3] was “only the human VKOR substituted with the M. tuberculosis domain functions as a VKOR” and the “ability of human VKOR with replaced residues 122-139 to use vitamin K to carboxylate the reporter” value [4] was “can utilize vitamin K to produce carboxylated reporter protein”.

B12: SA-VKORH: Salinispora tropica CNB-440 VKORH, SEQ ID NO:24 (protein)
chain: MTTTANRPVTTPAERHFLAAVTAWVLTIGGAVGLLAAAALTVEKINLLADPGYVPTCSINPILSCGSVMNTPQAAVFGFPNPLLGIAGFAVVTTLGVTLLATGHLPRWMWLGLQGGVTFGVVFVHWLIYQSLYVIGALCPYCMVVWAVTIPIFLYTTLQTLRDNTTALPRALRRVTERVARYHSLVLVVWAAFVVVVILHRFWDYWSTLG
modifications: Salinispora tropica CNB-440
With B12 the “activity relative to MT-VKORH” value [3] was 30% and the “ability to reduce vitamin K to KH2 compared with MT-VKORH” value [4] was “higher than the KO to vitamin K reduction”.

B13: SY-VKORH: Synechococcus sp. VKORH, SEQ ID NO:21 (protein)
chain: MASYLKLKAQEETWLQRHSRLILAILAGLGSLLTAYLTYTKLTEQPAAFCTGDGGCDLVLSSRWAEFLGIPTAAVGLLGFLGVLALAVLPDGLPLVKRWRWPALFGLVSAMTAFEMYMLYLMVAVLRQFCMYCTTAIILVAGLGLVTVLGHRWLDGGKLAFSYILVAFLTLVTTIGVYANQVPPPSPLAVGLAAHLRQIGGTMYGAYWCPHCQDQKELFGAAFDQVPYVECSPNGPGTPQAQECTEAGITSYPTWIINGRTYTGVRSLEALAVASGYPLEEGR
modifications: Synechococcus sp. JA-2-3B′a(2-13)
B13 was tested, and the “support of carboxylation … as substrate” value [3] was “only MT-VKORH supported carboxylation” and the “activity in reducing vitamin K to KH2” value [4] was “no significant activity”.
